Data taken from FireProtDB.

B1: S25F|E91D|D94E|L110F|G118A|L120R|H125R|D139G|A149L|A155V|S169A|D174E, Q88HV5 (parent)
chain: MPFQQGLLATPVPAHARHLFFTLQSPEALPAALDALLPQVDGKQLLLGVGAPLAKALGREIPGLRPFPLLDAAVENPSTQHALWLWLRGDERGDLLLRTQALEQALAPALSLADSVDGFLHRGGHDLTGYEDGTENPTDEEAVQAAIAADGSSFAAFQLWKHDLQYFKSLPQADQDNIIGRRLSDNEELDDAPASAHVKRTAQESFEPEAFMVRRSVSWADQRGAGLAFVALGKSFEAFEVQLRRMSGLEDGIIDGLYRFSRPLTGGYYWCPPMSETGVDLSPLLRA
B2: Formate dehydrogenase, O13437 (parent)
chain: MKIVLVLYDAGKHAADEEKLYGCTENKLGIANWLKDQGHELITTSDKEGETSELDKHIPDADIIITTPFHPAYITKERLDKAKNLKLVVVAGVGSDHIDLDYINQTGKKISVLEVTGSNVVSVAEHVVMTMLVLVRNFVPAHEQIINHDWEVAAIAKDAYDIEGKTIATIGAGRIGYRVLERLLPFNPKELLYYDYQALPKEAEEKVGARRVENIEELVAQADIVTVNAPLHAGTKGLINKELLSKFKKGAWLVNTARGAICVAEDVAAALESGQLRGYGGDVWFPQPAPKDHPWRDMRNKYGAGNAMTPHYSGTTLDAQTRYAEGTKNILESFFTGKFDYRPQDIILLNGEYVTKAYGKHDKK

Variants of: B1
Conditions: Pseudomonas putida (strain ATCC 47054 / DSM 6125 / CFBP 8728 / NCIMB 11950 / KT2440); pH 7.6; Fluorescence spectroscopy; whole UniProt chain shown

Row | Variant | Tm [°C]
1 | MPFQQGLLATPVPAHARHLFFTLQFPEALPAALDALLPQVDGKQLLLGVGAPLAKALGREIPGLRPFPLLDAAVENPSTQHALWLWLRGDDRGELLLRTQALEQALAPAFSLADSVDAFRHRGGRDLTGYEDGTENPTGEEAVQAAIALDGSSFVAFQLWKHDLQYFKALPQAEQDNIIGRRLSDNEELDDAPASAHVKRTAQESFEPEAFMVRRSVSWADQRGAGLAFVALGKSFEAFEVQLRRMSGLEDGIIDGLYRFSRPLTGGYYWCPPMSETGVDLSPLLRA [S25F E91D D94E L110F G118A L120R H125R D139G A149L A155V S169A D174E] | 75
2 | MPFQQGLLLTPVPAHARHLFFTLQFPEALPAALDALLPQVDGKQLLLGVGAPLAKALGREIPGLRPFPLLDAAVENPSTQHALWLWLRGDERGDLLLRTQALEQALAPALSLADSVDGFLHRGGHDLTGYEDGTENPTGEEAVQAAIALDGSSFVAFQLWKHDLQYFKSLPQADQDNIIGRRLSDNEELDDAPASAHVKRTAQESFEPEAFMVRRSVSWADQRGAGLAFVALGKSFEAFEVQLRRMSGLEDGIIDGLYRFSRPLTGGYYWCPPMSETGVDLSPLLRA [A9L S25F D139G A149L A155V] | 68
3 | MPFQQGLLLTPVPAHARHLFFTLQFPEALPAALDALLPQVDGKQLLLGVGAPLAKALGREIPGLRPFPLLDAAVENPSTQHALWLWLRGDERGDLLLRTQALEQALAPAFSLADSVDAFRHRGGRDLTGYEDGTENPTDEEAVQAAIAADGSSFAAFQLWKHDLQYFKALPQAEQDNIIGRRLSDNEELDDAPASAHVKRTAQESFEPEAFMVRRSMPWADGRGAGLAFVAFGKSFDAFEVQLRRMSGLEDGIIDGLYRFSRPLTGGYYWCPPMSETGVDLSPLLRA [A9L S25F L110F G118A L120R H125R S169A D174E V217M S218P Q222G L232F E237D] | 75
4 | MPFQQGLLATPVPAHARHLFFTLQSPEALPAALDALLPQVDGKQLLLGIGAPLAKALGREIPGLRPFPLLDAAVENPSTQHALWLWLRGDDRGDLFHRAQALIQALAPAFVLADEVDGFLHRGGHDLTGYEDGTENPTDEEAVQAAIAADGSSFAAFQLWKHDLQYFKSLPQADQDNIIGRRLSDNEELDDAPASAHVKRTAQESFEPEAFMVRRSMSWADGRGAGLAFVALGKSFEAFEVQLRRMSGLEDGIIDGLYRFSRPLTGGYYWCPPMSETGVDLSPLLRA [V49I E91D L96F L97H T99A E103I L110F S111V S115E V217M Q222G] | 65
5 | MPFQQGLLLTPVPAHARHLFFTLQFPEALPAALDALLPQVDGKQLLLGVGAPLAKALGREIPGLRPFPLLDAAVENPSTQHALWLWLRGDERGDLLLRTQALEQALAPALSLADSVDGFLHRGGHDLTGYEDGTENPTGEEAVQAAIALDGSSFVAFQLWKHDLQYFKSLPQADQDNIIGRRLSDNEELDDAPASAHVKRTAQESFEPEAFMVRRSVSWADQRGAGLAFVALGKSFEAFEVQLRRMSGLEDGIIDGLYRFSRPLTGGYYWCPPMSETGLDLSPLLRA [A9L S25F D139G A149L A155V V279L] | 68
6 | MPFQQGLLATPVPAHAVHLFFTLQSPEDLPAALDALLPQVDGKQLLLGIGAPLAKALGREIPGLRPFPLLDAAVENPSTQHALWLWLRGDDRGDLFHRAQALIQALAPALSLADSVDGFLHRGGHDLTGYEDGTENPQGDEAVEAAIADDGSSFAAFQLWKHDLDYFKSLPQAEQDNIIGRRLSDNEELDDAPESAHVKRTAQESFEPEAFMVRRSMSWADGRGAGLAFVALGHSFDAFEVQLRRMSGLEDGIIDGLYRFSRPLTGGYYWCPPMSETGVDLSALLRA [R17V A28D V49I E91D L96F L97H T99A E103I T138Q D139G E140D Q144E A149D Q165D D174E A194E V217M Q222G K234H E237D P283A] | 82
7 | MPFQQGLLLTPVPAHARHLFFTLQFPEALPAALDALLPQVDGKQLLLGVGAPLAKALGREIPGLRPFPLLDAAVENPSTQHALWLWLRGDERGDLLLRTRALEQALAPAFSLADSVDAFRHRGGRDLTGYEDGTENPTGEEAVQAAIALDGSSFAAFQLWKHDLQYFKALPQADQDNIIGRRLSDNEELDDAPASAHVKRTAQESFEPEAFMVRRSVSWADQRGAGLAFVALGKSFDAFEVQLRRMSGLEDGIIDGLYRFSRPLTGGYYWCPPMSETGVDLSPLLRA [A9L S25F Q100R L110F G118A L120R H125R D139G A149L S169A E237D] | 70
8 | MPFQQGLLATPVPAHARHLFFTLQSPEDLPAALDRLLPQVDGKQLLLGIGAPLAKALGREIPGLRPFPLLDAAVENPSTQHALWLWLRGDERGDLLLRTQALEQALAPAFVLADEVDGFRYRDGHDLTGYEDGTENPQGDEAVEAAIADDGSSFAAFQLWKHDLQYFKSLPQADQDNIIGRRLSDNEELDDAPASAHVKRTAQESFEPEAFMVRRSVSWADGRGAGLAFVALGKSFEAFEVQLRRMSGLEDGIIDGLYRFSRPLTGGYYWCPPMSETGVDLSALLRA [A28D A35R V49I L110F S111V S115E L120R H121Y G123D T138Q D139G E140D Q144E A149D Q222G P283A] | 74

Variants of: B2
Conditions: Candida boidinii; whole UniProt chain shown

Row | Variant | Tm [°C]
9 | MKIVLVLYDAGKHAADEEKLYGSTENKLGIANWLKDQGHELITTSDKEGETSELDKHIPDADIIITTPFHPAYITKERLDKAKNLKLVVVAGVGSDHIDLDYINQTGKKISVLEVTGSNVVSVAEHVVMTMLVLVRNFVPAHEQIINHDWEVAAIAKDAYDIEGKTIATIGAGRIGYRVLERLLPFNPKELLYYDYQALPKEAEEKVGARRVENIEELVAQADIVTVNAPLHAGTKGLINKELLSKFKKGAWLVNTARGAICVAEDVAAALESGQLRGYGGDVWFPQPAPKDHPWRDMRNKYGAGNAMTPHYSGTTLDAQTRYAEGTKNILESFFTGKFDYRPQDIILLNGEYVTKAYGKHDKK [C23S] | 54
10 | MKIVLVLYDCGKHAADEEKLYGCTENKLGIANWLKDQGHELITTSDKEGETSELDKHIPDADIIITTPFHPAYITKERLDKAKNLKLVVVAGVGSDHIDLDYINQTGKKISVLEVTGSNVVSVAEHVVMTMLVLVRNFVPAHEQIINHDWEVAAIAKDAYDIEGKTIATIGAGRIGYRVLERLLPFNPKELLYYDYQALPKEAEEKVGARRVENIEELVAQADIVTVNAPLHAGTKGLINKELLSKFKKGAWLVNTARGAICVAEDVAAALESGQLRGYGGDVWFPQPAPKDHPWRDMRNKYGAGNAMTPHYSGTTLDAQTRYAEGTKNILESFFTGKFDYRPQDIILLNGEYVTKAYGKHDKK [A10C] | 64
11 | MKIVLVLYDAGKHAADEEKLYGCTENKLGIANWLKDQGHELITTSDKEGETSELDKHIPDADIIITTPFHPAYITKERLDKAKNLKLVVVAGVGSDHIDLDYINQTGKKISVLEVTGSNVVSVAEHVVMTMLVLVRNFVPAHEQIINHDWEVAAIAKDAYDIEGKTIATIGAGRIGYRVLERLLPFNPKELLYYDYQALPKEAEEKVGARRVENIEELVAQADIVTVNAPLHAGTKGLINKELLSKFKKGAWLVNTARGAICVAEDVAAALESGQLRGYGGDVWFPQPAPKDHPWRDMRNKYGAGNAMTPHYSGTTLDAQTRYAEGTKNILESFFTGKFDYRPQDIILLWGEYVTKAYGKHDKK [N350W] | 54
12 | MKIVLVLYDAGKHAADEEKLYGCTENKLGIANWLKDQGHELITTSDKEGETSELDKHIPDADIIITTPFHPAYITKERLDKAKNLKLVVVAGVGSDHIDLDYINQTGKKISVLEVTGSNVVSVAEHVVMTMLVLVRNFVPAHEQIINHLWEVAAIAKDAYDIEGKTIATIGAGRIGYRVLERLLPFNPKELLYYDYQALPKEAEEKVGARRVENIEELVAQADIVTVNAPLHAGTKGLINKELLSKFKKGAWLVNTARGAICVAEDVAAALESGQLRGYGGDVWFPQPAPKDHPWRDMRNKYGAGNAMTPHYSGTTLDAQTRYAEGTKNILESFFTGKFDYRPQDIILLNGEYVTKAYGKHDKK [D149L] | 58
13 | MKIVLVLYDAGKHAADEEKLYGCTENKLGIANWLKDQGHELITTSDKEGETSELDKHIPDADIIITTPFHPAYITKERLDKAKNLKLVVVAGVGSDHIDLDYINQTGKKISVLEVTGSNVVSVAEHVVMTMLVLVRNFVPMHEQIINHDWEVAAIAKDAYDIEGKTIATIGAGRIGYRVLERLLPFNPKELLYYDYQALPKEAEEKVGARRVENIEELVAQADIVTVNAPLHAGTKGLINKELLSKFKKGAWLVNTARGAICVAEDVAAALESGQLRGYGGDVWFPQPAPKDHPWRDMRNKYGAGNAMTPHYSGTTLDAQTRYAEGTKNILESFFTGKFDYRPQDIILLNGEYVTKAYGKHDKK [A141M] | 35
